pIC50: −log10 of the molar value.

A word on the pIC50: it is −log10 of the IC50, conventionally taken in molar units.

The target of experiment [1] is recombinant integrin αIIbβ3 stably expressed on K562 cells (UniProt P08514). Briefly: flow cytometry on cells; mAb PT-25-activated αIIbβ3-K562 cells incubated 30 min at RT with serially diluted unlabeled Hr10, hFN10 or eptifibatide in the presence of 0.5 µM Alexa647-conjugated FB; buffer A. (A flow cytometer gives signals particle by particle.)
Experiment [2] has as its target recombinant integrin αVβ3 stably expressed on K562 cells (UniProt P06756). Briefly: flow cytometry on cells; displacement of Alexa647-labeled hFN10 from αVβ3-K562 cells by unlabeled hFN10 or Hr10; buffer A (1 mM MgCl2, 1 mM CaCl2), RT.
UniProt P06756, sequence (P06756 31-1048, chain 1 of 2): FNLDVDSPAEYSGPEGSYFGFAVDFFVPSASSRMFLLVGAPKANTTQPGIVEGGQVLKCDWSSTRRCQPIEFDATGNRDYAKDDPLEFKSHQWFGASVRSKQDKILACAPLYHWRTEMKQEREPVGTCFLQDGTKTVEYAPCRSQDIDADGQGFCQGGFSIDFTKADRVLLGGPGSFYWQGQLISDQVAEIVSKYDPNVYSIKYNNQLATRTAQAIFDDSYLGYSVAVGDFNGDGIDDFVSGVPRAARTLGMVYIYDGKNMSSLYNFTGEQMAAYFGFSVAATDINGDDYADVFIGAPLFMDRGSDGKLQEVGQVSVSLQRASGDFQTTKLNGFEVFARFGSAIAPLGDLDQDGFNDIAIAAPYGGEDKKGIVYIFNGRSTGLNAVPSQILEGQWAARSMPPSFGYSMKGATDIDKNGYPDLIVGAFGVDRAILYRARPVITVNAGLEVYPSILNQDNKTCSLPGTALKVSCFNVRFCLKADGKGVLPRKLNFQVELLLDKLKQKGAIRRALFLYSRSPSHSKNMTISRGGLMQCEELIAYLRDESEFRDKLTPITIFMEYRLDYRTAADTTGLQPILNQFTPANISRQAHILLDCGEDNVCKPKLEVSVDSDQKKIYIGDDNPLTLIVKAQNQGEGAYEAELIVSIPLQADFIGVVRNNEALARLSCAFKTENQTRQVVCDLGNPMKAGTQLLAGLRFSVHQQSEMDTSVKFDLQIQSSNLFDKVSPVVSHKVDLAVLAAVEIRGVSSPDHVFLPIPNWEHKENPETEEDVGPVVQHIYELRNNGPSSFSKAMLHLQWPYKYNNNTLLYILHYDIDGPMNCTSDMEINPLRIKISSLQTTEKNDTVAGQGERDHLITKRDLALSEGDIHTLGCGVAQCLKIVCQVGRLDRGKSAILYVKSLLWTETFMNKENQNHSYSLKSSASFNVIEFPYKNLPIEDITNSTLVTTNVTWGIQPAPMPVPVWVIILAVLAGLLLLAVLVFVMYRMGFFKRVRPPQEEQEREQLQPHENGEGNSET
UniProt P06756, sequence (P05106 27-788, chain 2 of 2, further chain): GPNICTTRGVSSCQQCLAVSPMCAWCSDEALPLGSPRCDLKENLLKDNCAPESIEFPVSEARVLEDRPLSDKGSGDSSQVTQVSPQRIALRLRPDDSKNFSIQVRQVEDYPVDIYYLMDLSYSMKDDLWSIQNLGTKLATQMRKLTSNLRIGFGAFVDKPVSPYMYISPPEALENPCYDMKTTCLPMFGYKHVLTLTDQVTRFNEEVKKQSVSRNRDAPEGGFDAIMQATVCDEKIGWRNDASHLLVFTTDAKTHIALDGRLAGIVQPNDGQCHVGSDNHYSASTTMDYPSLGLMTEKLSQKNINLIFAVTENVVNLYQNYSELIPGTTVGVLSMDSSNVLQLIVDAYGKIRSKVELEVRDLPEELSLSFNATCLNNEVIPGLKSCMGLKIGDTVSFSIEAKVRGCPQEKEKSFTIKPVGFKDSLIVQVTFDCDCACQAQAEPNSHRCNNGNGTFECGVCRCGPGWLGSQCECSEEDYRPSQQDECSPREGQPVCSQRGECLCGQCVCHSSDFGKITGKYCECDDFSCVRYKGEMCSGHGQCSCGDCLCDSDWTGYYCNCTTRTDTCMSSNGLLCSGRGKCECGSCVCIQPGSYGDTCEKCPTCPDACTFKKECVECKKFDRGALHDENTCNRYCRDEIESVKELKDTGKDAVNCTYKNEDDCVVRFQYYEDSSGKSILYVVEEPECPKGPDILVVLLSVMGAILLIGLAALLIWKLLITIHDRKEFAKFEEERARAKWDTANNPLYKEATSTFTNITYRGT

With eptifibatide (peptide), in experiment [1], the pIC50 was 7.14.

Turning to “hFN10 (from UniProt P02751 1539-1631) (designed binder)”, the pIC50 was 8.44 in experiment [2] and 6.32 in experiment [1].

The values above are taken from paper PMC6972956.
